Data from US12281155 (INSTITUT PASTEUR, dated 2025).
Numbering of substitutions follows the chain as printed.

B1: SPK002M A3 antibody (antibody, human IgG1, kappa, V domains shown)
VH: EVQLVESGGGLIQPGGSLRLSCAASTITVTSNYMSWVRQAPGKGLEWVSVIYPGGSTFYADSVKGRFTISADNSKNTLYLQMNSLRAEDTAVYYCARDLVVYGMDVWGQGTTVTVSS
VL: EIVLTQSPGTLSLSPGERATLSCRASQSVSSSYLAWYQQKPGQAPRLLIYGASSRATGIPGRFSGSGSGTDFTLTISRLEPEDFAVYYCQQGVTFGGGTKVEIKR
B2: SPK002M C1 antibody (antibody, human IgG1, kappa, V domains shown)
VH: B1 VH with T26I, I51A, A71T
VL: B1 VL with S31D, Q91Y
B3: SPK002M B1 antibody (antibody, human IgG1, kappa, V domains shown)
VH: B1 VH with T26I, A71Y
VL: B1 VL with S31D, V86I, Q91Y
B4: SPK002M C2 antibody (antibody, human IgG1, kappa, V domains shown)
VH: B1 VH with T26I, I51A, A71T
VL: B1 VL
B5: SPK002M A2 antibody (antibody, human IgG1, kappa, V domains shown)
VH: B1 VH
VL: B1 VL with S28G
B6: SPK002M A1 antibody (antibody, human IgG1, kappa, V domains shown)
VH: B1 VH
VL: B1 VL with S28G, V29F
B7: SPK002M C3 antibody (antibody, human IgG1, kappa, V domains shown)
VH: B1 VH with T26I, A71T
VL: B1 VL
B8: SPK002M B2 antibody (antibody, human IgG1, kappa, V domains shown)
VH: B1 VH with T26I, A71Y
VL: B1 VL with V86I
B9: SPK002M A4 antibody (antibody, human IgG1, kappa, V domains shown)
VH: B1 VH with T26V
VL: B1 VL
B10: SPK002M A5 antibody (antibody, human IgG1, kappa, V domains shown)
VH: B1 VH with T26V
VL: B1 VL with V86I
B11: SPK002M A6 antibody (antibody, human IgG1, kappa, V domains shown)
VH: B1 VH with T26G
VL: B1 VL with V86I

The binders below were run against T1, recombinant SARS-CoV-2 Spike RBD domain, Wuhan (SARS-CoV-2) (assay: ELISA on coated RBD).
T1 construct: also called RBD Wuhan
With B1 the “Binding AUC” value was 33.
B2 was tested, and the “Binding AUC” value was 32.
For B3, the “Binding AUC” value was 31.
In the case of B4, the “Binding AUC” value is reported as 32.
For B5, the “Binding AUC” value was 33.
In the case of B6, the “Binding AUC” value is reported as 33.
In the case of B7, the “Binding AUC” value is reported as 34.
B8 was tested, and the “Binding AUC” value was 31.
B9 was tested, and the “Binding AUC” value was 34.
In the case of B10, the “Binding AUC” value is reported as 34.

What follows are binders tested against T1, recombinant SARS-CoV-2 Spike RBD … (assay: competition ELISA, blocking of RBD binding to ACE2 ectodomain).
Work on B1 yielded a Blocking % of 94%.
B2 was tested, and the Blocking % was 94%.
Work on B3 yielded a Blocking % of 87%.
With B4 the Blocking % was 88%.
Work on B5 yielded a Blocking % of 92%.
B6 gave a Blocking % of 92%.
With B7 the Blocking % was 88%.
Work on B8 yielded a Blocking % of 90%.
B9 was tested, and the Blocking % was 88%.
With B10 the Blocking % was 89%.

These binders were tested against T2, YU2 HIV-1 Env gp140 protein (HIV-1 YU2, UniProt P35961 32-670) (assay: polyreactivity ELISA (FIG. 1)).
T2 construct: domain: gp140; also called gp140 (HIV-1 YU2); HIV gp140
B1: no binding (tested: 4 µg/ml).
B2: no binding (tested: 4 µg/ml).
B3: no binding (tested: 4 µg/ml).
B4: no binding (tested: 4 µg/ml).
B5: no binding (tested: 4 µg/ml).
B6: no binding (tested: 4 µg/ml).
B11: no binding (tested: 4 µg/ml).
B7: no binding (tested: 4 µg/ml).
B8: no binding (tested: 4 µg/ml).
B9: no binding (tested: 4 µg/ml).
B10: no binding (tested: 4 µg/ml).
